assay: yeast display, Sf9 membrane polyspecificity reagent, FACS + sequencing; frameworks hold sequencing errors
Method in brief: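 Genes from sorted yeast were amplified by colony PCR, read by MiSeq 2 × 250 sequencing and filtered on CDR length. These cells carried a synthetic nanobody library in Saccharomyces cerevisiae BJ5465 and were sorted by FACS into low and high (top ~1%) gates on anti-HA and streptavidin fluorescence. Polyreactivity is labelled according to the gate of origin.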

| Sequence | polyreactivity (PSR sort gate) |
| --- | --- |
| QVQLVESGGGLVQAGGSLRLSCAASGSIFVGYAMGWYRQAPGKEREVVAAISSSGTSTYYADSVKGRFTISRDNAKNTVYLQMNSLKPEDTAVYYCNARWYVPAYEFDYWGHGTQVTVSS | low polyreactivity |
| QVQLVESGGGLVQAGGSLRLSCAASGSIFVGYAMGWYRQAPWKERELVAAISKRGGGTYYADSVKGRFTISRDNAKNTVYLHMNSLKPEDTAVYYCNAVPVHLDVASGYYYWGQGTQVTVSS | high polyreactivity |
| QVQLVESGGGLVQAGGSLRLSCAASGSIFVHYAMGWYRQAPGKERELVAAISRSGGSTYYADSVKGRFTISRDNAKNTFYLQMNSLKPEDTAVYYCAADSGYLSPYDYWGHGTQVTVSS | low polyreactivity |
| QVQLVESGGGLVQAGGSLRLSCAASGSIFVINAMGWYRQAPGKERELVAAISYSGTGTYYADSVKGRFTISRDNAKNTVYLQMNSLKPEDTAVYYCAADYYYRYRIYDYWGQGTQVTVSS | low polyreactivity |
| QVQLVESGGGLVQAGGSLRLSCAASGSIFVKNAMGWYRQAPGKERELVARITYSGGSTYYADSVKGRFTISRDNAKNTVYLQMNSLKPEDTADYYCDTDGNLRTAGYAYDHYYWGQGTQVTVSS | high polyreactivity |
| QVQLVESGGGLVQAGGSLRLSCAASGSIFVKNAMGWYRQAPGKERELVAVITIRTATTYYADSVKGRFTISRDNAKNTVYLQMNSLKPEDTAVYYCAAAKRQRGYLQREGNYWGQGTQVTVSS | low polyreactivity |
| QVQLVESGGGLVQAGGSLRLSCAASGSIFVKYAMGWYRQAPGTERELVAAISGSGGSTYYADSVKGRFTISRDNAKNTVYLQMNSLKPEDTAVYYCAADDYFYSGRYGFEYWGQGTQVTVSS | low polyreactivity |
| QVQLVESGGGLVQAGGSLRLSCAASGSIFVLNAMGWYRQAPGKERELVAAISSADSTTYADSVKGRFTISRDNAKNSVYLQMNSLKPEDTAVYYCAADWWYVLIFDYWGQGTQVTVSS | low polyreactivity |
| QVQLVESGGGLVQAGGSLRLSCAASGSIFVLNAMGWYRQAPGKERELVATITWRGGSTYYADSVKGRFTISRDNAKNTVYLQMNSLKPEDTAVYYCAKVDIRHHRFYYWGHGTQVTVSS | low polyreactivity |
| QVQLVESGGGLVQAGGSLRLSCAASGSIFVLYAMGWYRQAPGKERELVAAINYDGASTYYADSVKGRFTISRDNAKNTVYLQMNSLKPEDTAVYYCAARWQFNIDVQLYLFEYWGQGTEVTVSS | low polyreactivity |
| QVQLVESGGGLVQAGGSLRLSCAASGSIFVLYAMGWYRQAPGKERELVAAITASGGSTHYADSVKGRFTISRDNAKNTVYLQMNSLKPEDTAVYYCNADVYTEYDYWGQGTQVTVSS | low polyreactivity |
| QVQLVESGGGLVQAGGSLRLSCAASGSIFVLYAMGWYRQAPGKERELVATITWSGDSTYYADSVKGRFTISRDNAKNTVYLQMNSLKPEDTAVYYCNKRIWDQYDWGQGTQVTVSS | low polyreactivity |
| QVQLVESGGGLVQAGGSLRLSCAASGSIFVLYTIGWYRQAPGKERELVGAISYSGGSTNYADSVKGRFTISRDNAKNTVYLQMNSLKPEDTSVYYCADRASKGHKYWGQGTQVTVSS | high polyreactivity |
| QVQLVESGGGLVQAGGSLRLSCAASGSIFVLYTMGWYRQAPGKERELVAAISYSGGSTNYADSVKGRFTISRDNAKNTVYLQMNSLKPEDTAVYYCAARASKGHKYWGQGTQVTVSS | high polyreactivity |
| QVQLVESGGGLVQAGGSLRLSCAASGSIFVNYAMGWYSQAPGTERELVAAISWRGGITYGVSVKGRFTISRDNAKNTVYLQMNSLKPEDTADYYSNTDGDDFFHVIYDYWAQGTQVTVSS | low polyreactivity |
| QVQLVESGGGLVQAGGSLRLSCAASGSIFVPYAMGWYRQAPGKERELVAAISSGGSTNYADSVKGRFTISRDNAKNTVYLQMNSLKPEDTAVYYCNADYSVYIIADEYDYWGQGTQVTVSS | low polyreactivity |

| Sequence | polyreactivity (PSR sort gate) |
| --- | --- |
| QVQLVESGGGLVQAGGSLRLSCAASGSIFVPYAMGWYRQAPGKERELVASINWNGSSTYADSVKGRFTISRDNAKNSVYLQMNSLKPEDTAVYYCNADYNRNSVQFSLYDYWGQGTQVTVST | low polyreactivity |
| QVQLVESGGGLVQAGGSLRLSCAASGSIFVPYAMGWYRQAPGKERELVAVITSGGSTYYADSVKGRFTISRDNAKNTVFLQMNSLKPEDTAVYYCAVDGGEFSSYGYWGQGTQVTVSS | low polyreactivity |
| QVQLVESGGGLVQAGGSLRLSCAASGSIFVPYTMGWYRQAPGKERELVASISYSGGTTYYADSVKGRFTISRDNAKNTVYLQMNSLKPEDTAVYYCAAQTLDGYDYWGQGTQVTVSS | low polyreactivity |
| QVQLVESGGGLVQAGGSLRLSCAASGSIFVQYAMGWYRQAPGKERELVATISSSGGSTYYADSVKGRFTISRDNAKNTVYLQMNSLKPEDTAVYYCAADWTLDPSYGYYADDYWGQGTQVTVST | low polyreactivity |
| QVQLVESGGGLVQAGGSLRLSCAASGSIFVRNAMGWYRQAPGKEREFVATITSSGGTTYYADSVKGRFTISRDNAKNTVYLQMNSLKPDDTAVYYCNADAGWYDWVYYVGRDYWGQGTQVTVSS | low polyreactivity |
| QVQLVESGGGLVQAGGSLRLSCAASGSIFVRNAMGWYRQAPGKERELVAAITARGGSTYYADSVKGRFTISRDNAKNTVYLLMHSLKPEDTAVYYCARSYYYRGWAQWRYDYWGQGTQVTVSS | high polyreactivity |
| QVQLVESGGGLVQAGGSLRLSCAASGSIFVRNGMGWYRQAPGKERELVASITSGTITYYADSVKGRFTISRDNAKNTVYLQMNSLKPEDTAVYYCNAGWRSSRMEYWGQGTQVTVSS | high polyreactivity |
| QVQLVESGGGLVQAGGSLRLSCAASGSIFVRNVMGWYRQAPGKERELVAGISWNGGSTFNADSVKGRFTISRDNAKNTVYLQMNSLKQEDTAVYYCAARGRHSGYYSFPYYYWGQGTQVTVSS | low polyreactivity |
| QVQLVESGGGLVQAGGSLRLSCAASGSIFVRNVMGWYRQPPGKERELVATIRYRGGSTYYADSVKGRFTISRDYAKNTVYLQMNSLKPEDTAVYYCNARYLWADEYYYWGQGTQVTVSS | low polyreactivity |
| QVQLVESGGGLVQAGGSLRLSCAASGSIFVRYAMGWYRQAPGKERELVAAISSGGRTYYADSVKGRFTISRDNAKYTVYLQMNSLKPEDTAVYYCNAVKRVPSLGPYDYWGQGTQVTVSS | high polyreactivity |
| QVQLVESGGGLVQAGGSLRLSCAASGSIFVRYAMGWYRQAPGKERELVASIRSRGDSTYYADSVKGRFTISRDNAKNTVYLQMNSLKPEDTAVYYCAARRYPPRMDYWGQGTQVTVSS | high polyreactivity |
| QVQLVESGGGLVQAGGSLRLSCAASGSIFVRYAMGWYRQAPGKERELVAVISSDGRTYYADSVKGRFTISRDNAKNTVYLQMNSLKPEDTAVYYCAKRAWGFGGYDYWGQGTQVTVSS | low polyreactivity |
| QVQLVESGGGLVQAGGSLRLSCAASGSIFVRYTMGWYRQAPGKETELVAAISWGGGSTYYADSVKGRFTISRDNAKNSVYLQMNSLKPEDTAVYYCNKRYIQLYDYWGQGTKVTVSS | low polyreactivity |
| QVQLVESGGGLVQAGGSLRLSCAASGSIFVSNAMGWYRQAPGKERELVAAITSSGSTDYADSVKGRFTISRDNAKNTVYLQMNSLKPDDTAVYYCAAESDHTFFLWSLNDSWGQGTQVTVSS | low polyreactivity |
| QVQLVESGGGLVQAGGSLRLSCAASGSIFVSNTMGWYRQAPGKEREMVASIRETAGSTNYADSVKGRFTISRDYAKNTFYLQMNSLKPEDTAVYYCAARYSPTRYHYGYWGQGTQVTVSS | low polyreactivity |
| QVQLVESGGGLVQAGGSLRLSCAASGSIFVTNPMGWYRQAPGKERELVAAIRGGGGSTYYADSVKGRFTISRDNAKNTVYLQMNSLKPEDTAVYYCNADRRGYLQSEMDYWGQGTQVTVSS | low polyreactivity |

Source: the nanobody polyreactivity screen of Harvey et al. (2022)
